According to publication PMC7271239, “Structural and catalytic analysis of two diverse uridine phosphorylases in Phytophthora capsici” (Scientific Reports, 2020):

What was measured:
[1] = molecular target: T1, PcUP1 (Phytophthora capsici, UniProt A0A410UCT3); assay: X-ray crystal structure, […] Å; format: binding; conditions: with 2'-deoxyuridine (also with thymidine, 6K8P); phosphate site; crystals grown in phosphate
T1 construct: gene up; homodimer, active site at the dimer interface (His19 and Arg59 from the neighbouring monomer)
T1 sequence (A0A410UCT3 1-296): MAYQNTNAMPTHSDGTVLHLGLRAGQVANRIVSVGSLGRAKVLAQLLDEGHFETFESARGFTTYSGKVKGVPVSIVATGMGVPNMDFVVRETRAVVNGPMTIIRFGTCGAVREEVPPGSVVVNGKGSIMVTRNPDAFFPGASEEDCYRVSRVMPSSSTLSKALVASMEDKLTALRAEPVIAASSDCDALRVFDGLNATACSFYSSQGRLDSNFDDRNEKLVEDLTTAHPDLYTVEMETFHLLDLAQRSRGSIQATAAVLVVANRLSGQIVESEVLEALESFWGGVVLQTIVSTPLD

[2] = substrate: O=c1ccn([C@@H]2O[C@H](CO)[C@@H](O)[C@H]2O)c(=O)[nH]1; assay: HPLC of uracil formed, Michaelis-Menten fit; format: biochemical, Phytophthora capsici; conditions: phosphorolysis, uridine 0.25-5 mM, 10 mM Na2HPO4, pH 7.5, 25 °C, kcat assumes Et = 2

Molecule | X-ray crystal structure, 2.1 Å [1] | Km [2] [mM] | kcat [2] [s⁻¹]
O=P(O)(O)O [phosphate] | Arg59 is an important residue in the phosphate-bonding pocket, forming two hydrogen bonds | – | –
PcUP2 (Phytophthora capsici) (protein) MAPNMDAVADATAQVHVRNSHILEMHSDVLFHIGLTCSQEERQQVANTFGDVKFFITGGSAERMTHFAQSVAKELGITTPYGYQLAPIGSTSRYTLFKVGPVLVANHGIGMPSISILLHEVTKLLEYAGAHGATYIRMGTSGGIGVEPGTVVITSEGVNNKLESVDEVAVLGSTVRRPSICSPEVREEIITAAKEVGLPYAVGKTLSCNDFYEGQGRLDGAICEYTLEDKMAFLQKLADAGVRNIEMEARLMAGFCHKLNIPVAVVCVTLLNRLNGDQVLSSHETLQDFERRPGAVLLHYIKSKVNASA | – | 7.55 ± 0.6 | 1188 ± 90
PcUP1 (Phytophthora capsici) (protein, homodimer, active site at the dimer interface (His19 and Arg59 from the neighbouring monomer)) MAYQNTNAMPTHSDGTVLHLGLRAGQVANRIVSVGSLGRAKVLAQLLDEGHFETFESARGFTTYSGKVKGVPVSIVATGMGVPNMDFVVRETRAVVNGPMTIIRFGTCGAVREEVPPGSVVVNGKGSIMVTRNPDAFFPGASEEDCYRVSRVMPSSSTLSKALVASMEDKLTALRAEPVIAASSDCDALRVFDGLNATACSFYSSQGRLDSNFDDRNEKLVEDLTTAHPDLYTVEMETFHLLDLAQRSRGSIQATAAVLVVANRLSGQIVESEVLEALESFWGGVVLQTIVSTPLD | – | 6.96 ± 1.52 | 982 ± 152
